Drawing on PMC8009439, this text covers stoichiometry N for one substance.

Experiment [1] has as its target pyruvate kinase isoform M2 (PKM2), endogenous in immortalized hepatocytes (human (endogenous in NeHepLxHT)) (UniProt P14618). Nature of the experiment: cross-linking; cell lysate treated with 0.1% glutaraldehyde for 20 minutes at 25°C, stopped with 50 mM Tris pH 8.0, SDS-PAGE and western blot for PKM2; control and LHBS-expressing immortalized hepatocytes, HuH-7 and HepG2 cells infected with Ad-HBV-KO or Ad-HBV-WT.

Experiment [2] has the same target. Put plainly: glycerol density gradient centrifugation.

Sequence of pyruvate kinase isoform M2 (PKM2), endogenous in immortalized hepatocytes, P14618 1-531 (enzyme; other documents disagree on this pair) (P14618 whole entry, canonical isoform): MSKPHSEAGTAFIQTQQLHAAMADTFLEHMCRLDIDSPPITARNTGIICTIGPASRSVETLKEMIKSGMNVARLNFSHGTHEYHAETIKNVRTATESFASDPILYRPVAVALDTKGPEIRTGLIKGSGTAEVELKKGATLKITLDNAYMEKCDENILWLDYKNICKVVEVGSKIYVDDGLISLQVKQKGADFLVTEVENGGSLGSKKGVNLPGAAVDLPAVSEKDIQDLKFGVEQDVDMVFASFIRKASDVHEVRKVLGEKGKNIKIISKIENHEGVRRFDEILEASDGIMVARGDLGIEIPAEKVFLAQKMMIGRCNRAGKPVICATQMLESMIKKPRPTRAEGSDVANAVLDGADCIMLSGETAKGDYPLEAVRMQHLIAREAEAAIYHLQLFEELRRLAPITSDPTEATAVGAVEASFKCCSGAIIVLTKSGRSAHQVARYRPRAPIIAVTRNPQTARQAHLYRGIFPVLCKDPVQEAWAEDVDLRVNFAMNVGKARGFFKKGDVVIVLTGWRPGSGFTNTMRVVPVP

For “pyruvate kinase isoform M2 (PKM2), endogenous in immortalized hepatocytes, P14618 1-531 (enzyme; other documents disagree on this pair)”, the stoichiometry N in experiment [1] and in experiment [2] was 2 in each case.
